Reference: the supplement of paper PMC10567573

B1: PDZK1 (parent)
chain: RETASLKLLPHQPRIVEMKKGSNG

Variants of: B1
Experiment: protein stability index of a GFP-peptide fusion (GPS, HEK-293T) (PSI 1-6); higher = more stable
Settings: c terminus: a fixed tail appended
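Note: lentivirally expressed fusions sorted by FACS into six bins by GFP to DsRed ratio, PSI derived from sequencing read proportions per bin multiplied by bin number.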

Row | Variant | protein stability index
1 | RETASLKLLPHQPRIVEMNKGSNG | 3.28
2 | RETASLKLLPHQPRIVEMHKGSNG | 2.65
3 | RETASLKLLPHQPRIVEMGKGSNG | 4.83
4 | RETASLKLLPHQPRIVEMCKGSNG | 2.29
5 | RETASLKLLPHQPRIVEMLKGSNG | 2.79
6 | RETASLKLLPHQPRIVEMPKGSNG | 4.52
7 | RETASLKLLPHQPRIVEMTKGSNG | 2.61
8 | RETASLKLLPHQPRIVEMVKGSNG | 2.39
9 | RETASLKLLPHQPRIVEMYKGSNG | 2.2
10 | RETASLKLLPHQPRIVEMIKGSNG | 2.77
11 | RETASLKLLPHQPRIVEMDKGSNG | 4.35
12 | RETASLKLLPHQPRIVEMEKGSNG | 3.94
13 | RETASLKLLPHQPRIVEMSKGSNG | 3.49
14 | RETASLKLLPHQPRIVEMAKGSNG | 3.55
15 | RETASLKLLPHQPRIVEMRKGSNG | 2.63
16 | RETASLKLLPHQPRIVEMWKGSNG | 3.14
17 | RETASLKLLPHQPRIVEMKPGSNG | 3.99
18 | RETASLKLLPHQPRIVEMKIGSNG | 3.41
19 | RETASLKLLPHQPRIVEMKEGSNG | 4.87
20 | RETASLKLLPHQPRIVEMKFGSNG | 3
21 | RETASLKLLPHQPRIVEMKMGSNG | 3.57
22 | RETASLKLLPHQPRIVEMKYGSNG | 3.62
23 | RETASLKLLPHQPRIVEMKHGSNG | 4.4
24 | RETASLKLLPHQPRIVEMKVGSNG | 3.7

Row | Variant | protein stability index
25 | RETASLKLLPHQPRIVEMKGGSNG | 4.14
26 | RETASLKLLPHQPRIVEMKTGSNG | 3.51
27 | RETASLKLLPHQPRIVEMKQGSNG | 4.06
28 | RETASLKLLPHQPRIVEMKAGSNG | 3.46
29 | RETASLKLLPHQPRIVEMKWGSNG | 2.48
30 | RETASLKLLPHQPRIVEMKCGSNG | 3.65
31 | RETASLKLLPHQPRIVEMKLGSNG | 3.61
32 | RETASLKLLPHQPRIVEMKNGSNG | 4.28
33 | RETASLKLLPQQPRIVEMKKGSNG | 3.23
34 | RETASLKLLPYQPRIVEMKKGSNG | 3.5
35 | RETASLKLLPVQPRIVEMKKGSNG | 2.59
36 | RETASLKLLPSQPRIVEMKKGSNG | 3.52
37 | RETASLKLLPTQPRIVEMKKGSNG | 3.73
38 | RETASLKLLPNQPRIVEMKKGSNG | 3.38
39 | RETASLKLLPPQPRIVEMKKGSNG | 3.25
40 | RETASLKLLPRQPRIVEMKKGSNG | 3.35
41 | RETASLKLLPMQPRIVEMKKGSNG | 2.75
42 | RETASLKLLPWQPRIVEMKKGSNG | 3.29
43 | RETASLKLLPHQPRFVEMKKGSNG | 3.44
44 | RETASLKLLPHQPRAVEMKKGSNG | 4.78
45 | RETASLKLLPHQPRGVEMKKGSNG | 5.16
46 | RETASLKLLPHQPRQVEMKKGSNG | 4.72
47 | RETASLKLLPHQPRRVEMKKGSNG | 4.51
48 | RETASLKLLPHQPRSVEMKKGSNG | 4.69

Row | Variant | protein stability index
49 | RETASLKLLPHQPRYVEMKKGSNG | 4.01
50 | RETASLKLLPHQPRPVEMKKGSNG | 4.39
51 | RETASLKLLPHQPRLVEMKKGSNG | 4.16
52 | RETASLKLLPHQPRCVEMKKGSNG | 4.3
53 | RETASLKLLPHQPRDVEMKKGSNG | 4.66
54 | RETASLKLLPHQPRMVEMKKGSNG | 3.89
55 | RETASLKLLPHQPRVVEMKKGSNG | 3.51
56 | RETASLKLLPHQPREVEMKKGSNG | 5.02
57 | RETASLKLLPHQPRNVEMKKGSNG | 4.99
58 | RETASLKLLPHQPRKVEMKKGSNG | 4.75
59 | RETASLKLLPHQPRWVEMKKGSNG | 2.79
60 | RETASLKLLPHQPRTVEMKKGSNG | 4.49
61 | RETASLKLLPHQPRIVEKKKGSNG | 4.56
62 | RETASLKLLPHQPRIVEVKKGSNG | 3.86
63 | RETASLKLLPHQPRIVEQKKGSNG | 4.58
64 | RETASLKLLPHQPRIVEHKKGSNG | 4.44
65 | RETASLKLLPHQPRIVEFKKGSNG | 4
66 | RETASLKLLPHQPRIVEYKKGSNG | 3.91
67 | RETASLKLLPHQPRIVEDKKGSNG | 5.3
68 | RETASLKLLPHQPRIVELKKGSNG | 4.15
69 | RETASLKLLPHQPRIVEWKKGSNG | 3.53
70 | RETASLKLLPHQPRIVESKKGSNG | 4.79
71 | RETASLKLLPHQPRIVECKKGSNG | 4.33
72 | RETASLKLLPHQPRIVEEKKGSNG | 5.25

Row | Variant | protein stability index
73 | RETASLKLLPHQPRIVEIKKGSNG | 4.21
74 | RETASLKLLPHQPRIVEAKKGSNG | 4.51
75 | RETASLKLLPHQPRIVETKKGSNG | 4.85
76 | RETASLKLLPHQPRIVEPKKGSNG | 4.58
77 | RETASLKLLPHQPRIVERKKGSNG | 4.93
78 | RETASLKLLPHQPRIVEMKKLSNG | 1.83
79 | RETASLKLLPHQPRIVEMKKKSNG | 3.74
80 | RETASLKLLPHQPRIVEMKKISNG | 3.23
81 | RETASLKLLPHQPRIVEMKKCSNG | 2.58
82 | RETASLKLLPHQPRIVEMKKTSNG | 2.25
83 | RETASLKLLPHQPRIVEMKKRSNG | 3.9
84 | RETASLKLLPHQPRIVEMKKNSNG | 3.43
85 | RETASLKLLPHQPRIVEMKKPSNG | 3.77
86 | RETASLKLLPHQPRIVEMKKFSNG | 2.64
87 | RETASLKLLPHQPRIVEMKKDSNG | 4.48
88 | RETASLKLLPHQPRIVEMKKQSNG | 2.92
89 | RETASLKLLPHQPRIVEMKKESNG | 4.29
90 | RETASLKLLPHQPRIVEMKKYSNG | 2.13
91 | RETASLKLLPHQPRIVEMKKASNG | 2.67
92 | RETASLKLLPHQPRIVEMKKWSNG | 2.6
93 | RETASLKLLPHQPRIVEMKKSSNG | 3.37
94 | RETASLKLLPHQPRIVEMKKVSNG | 3.56
